Key:
[1] = target: T1, Recombinant Human OX40L (Leader sequence, Isoleucine Zipper and FLAG Sequence Included) (human); assay: SPR (ProteOn XPR36), apparent affinity, antibody captured on anti-mouse IgG, hOX40L at 256 nM, 1:1 model, 25 C
T1 construct: It was used biotinylated in the HTRF assays and unlabelled in SPR and in the IL-2 release assay; also called hOX40L; recombinant hOX40L
Method: (§1) SPR analysis was carried out using the ProteOn™ XPR36 Array System (BioRad). Anti-mouse IgG (GE Healthcare BR-1008-38) was immobilised on a GLM biosensor surface using amine coupling, the surface was then blocked using 1 M ethanolamine. Test antibodies were captured on this surface and recombinant hOX40L (human and rhesus) were used at a single concentration of 256 nM, binding sensorgrams were double referenced using a buffer injection (i.e. 0 nM) to remove baseline drift and injection artefacts. Apparent affinities for the OX40L-antibody interaction were determined using the 1:1 model inherent to the ProteOn XPR36 analysis software. The assay was run using HBS-EP (Teknova) as running buffer and carried out at 25° C.

[2] = target: T1, Recombinant Human OX40L (Leader …); assay: cell-based or functional assay
[3] = target: T2, Recombinant Rhesus OX40L (Leader Sequence, FLAG and Isoleucine zipper included) (Rhesus (Macaca mulatta)); assay: SPR (ProteOn XPR36), antibody captured, rhesus OX40L at 256 nM, 25 C; CNROR = cannot resolve off-rate
T2 construct: also called RhsOX40L; Rhesus monkey OX40L
Method: as §1

[4] = target: T1, Recombinant Human OX40L (Leader …); assay: HTRF receptor neutralisation: antibody titrated against biotinylated hOX40L and OX40RFc-AF647; mean +/- SEM of three experiments
[5] = target: T1, Recombinant Human OX40L (Leader …); assay: HTRF ligand/receptor neutralisation: antibody titrated against biotinylated hOX40L; the blocked ligand is OX40RFc-AF647; streptavidin cryptate detection
Method: Fully human purified IgG or other inhibitor were tested in order to establish the clone potency as measured by IC₅₀ values in the assay. Antibodies recombinantly expressed and purified were titrated by diluting in HTRF assay buffer and 5 μL of this titration transferred to a white 384 well low volume non-binding surface polystyrene plate (Greiner). Biotinylated OX40L was diluted in HTRF assay buffer to a working concentration of 2.4 nM and 5 μL added. […] Streptavidin cryptate (CISBIO) was diluted in HTRF assay buffer to working concentration of 1:100 and 5 μL added to all wells of the plate. Plates were covered, protected from light and incubated at room temperature for 3 hrs prior to reading time resolved fluorescence at 620 nm and 665 nm emission wavelengths using an EnVision plate reader (Perkin Elmer). Data were analysed by calculating delta F as described in Equation 4 and percentage of receptor for each sample according to Equation 5 or in some cases Equation 6. IC₅₀ values were determined using GraphPad Prism software by curve fitting using a four-parameter logistic equation (Equation 7) (FIG. 1).

T1 sequence (chain, as listed by the source limits assumed): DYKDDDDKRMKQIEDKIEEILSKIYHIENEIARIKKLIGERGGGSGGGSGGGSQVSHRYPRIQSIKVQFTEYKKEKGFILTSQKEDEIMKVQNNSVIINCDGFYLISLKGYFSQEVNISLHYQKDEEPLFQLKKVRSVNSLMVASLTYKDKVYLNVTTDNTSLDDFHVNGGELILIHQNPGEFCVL
T2 sequence (chain, as listed by the source limits assumed): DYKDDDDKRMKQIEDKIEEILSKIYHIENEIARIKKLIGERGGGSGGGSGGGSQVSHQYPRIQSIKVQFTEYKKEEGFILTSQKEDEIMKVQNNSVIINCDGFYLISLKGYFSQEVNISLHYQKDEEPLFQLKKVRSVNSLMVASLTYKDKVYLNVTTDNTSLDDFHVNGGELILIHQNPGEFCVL

Row | Binder | Kd [1] | Primary T-cell Assay IC50 nM (recombinant OX40L induced IL2 release from primary human T-cells) [2] | binding result [3] | IC50 [4] | IC50 (read off the curve) [5]
1 | 9H04 (hybridoma) (antibody, V domains shown, Purified from hybridoma supernatant as a murine/human chimeric antibody (human variable domains, mouse constant regions); also called 09H04) VH: QVQLVESGGGLVKPGGSLRLSCAASRFTLSDYYMTWIRQAPGKGLEWVSYISSSGNTIYYADSVKGRFTISRDNAKNSLYLQMNSLRAEDTAVYYCARDLSGSYWDYYYGMDVWGQGTTVTVSS VL: AIQLTQSPSSLSTSVGDRVTIACRASQGINNALAWYQQKPGKAPKLLIYDASSLESGVPSRFSGSGSGTDFTLTISSLQPEDFATYYCQQFNSYPRTFGQGTKVEIK | 5.3 nM |  |  |  | 
2 | 10A07 (human) (antibody, V domains shown, also called 10A07 IgG4PE; 10A7 IgG4-PE) VH: EVQLVESGGVLVQPGGSLRLSCAASGFTFSSYIMTWVRQAPGKGLEWVSGISGSGGGTYYADSMKGRFTISRDNSKNTLYLQMNSLRVEDTAVYYCAKDRLGPITLVRGGYYYGMDVWGQGTTVTVSS VL: DIQMTQSPSSLSASVGDRVTITCRASQSISDYLNWYQQKPGKAPKFLIYAASSLQSGVPSRFSGSGSGTDFTLTVSSLQPEDFATYYCQQSYSTPRTFGQGTRVEIKR |  | 0.83 nM | binds | 1.2 nM | ~1 nM
3 | 2D10 (human) (antibody, human IgG4 S228P, kappa, V domains shown, Recombinant fully human IgG4-PE/kappa; also called 02D10 IgG4-PE; 2D10 IgG4PE) VH: EVQLVESGGGLVQPGGSLRLSCAASGFTFSNYAMNWVRQAPGKGLEWVSTISGSGGATRYADSVKGRFTISRDNSRNTVYLQMNSLRVEDTAVFYCTKDRLIMATVRGPYYYGMDVWGQGTTVTVSS VL: DIQMTQSPSSLSASVGDRVTITCRASQSISSYLNWYQQKPGKAPNLLIYAASSLQSGVPSRFSGSGSETDFTLTISSLQPEDFATYYCQQSHSVSFTFGPGTKVDIKR |  | 0.81 nM | binds | 0.75 nM | ~0.8 nM

The remaining lines, values ahead:

Row | Kd [1] | Primary T-cell Assay IC50 nM (recombinant OX40L induced IL2 release from primary human T-cells) [2] | binding result [3] | IC50 [4] | IC50 (read off the curve) [5] | Binder
4 |  |  | binds |  |  | 10A07 (hybridoma) (antibody, V domains shown, Purified from hybridoma supernatant as a murine/human chimeric antibody (human variable domains, mouse constant regions); also called 10A7) VH: EVQLVESGGVLVQPGGSLRLSCAASGFTFSSYIMTWVRQAPGKGLEWVSGISGSGGGTYYADSMKGRFTISRDNSKNTLYLQMNSLRVEDTAVYYCAKDRLGPITLVRGGYYYGMDVWGQGTTVTVSS VL: DIQMTQSPSSLSASVGDRVTITCRASQSISDYLNWYQQKPGKAPKFLIYAASSLQSGVPSRFSGSGSGTDFTLTVSSLQPEDFATYYCQQSYSTPRTFGQGTRVEIK
5 | 2.2 nM |  |  |  |  | 19H01 (hybridoma) (antibody, V domains shown, Purified from hybridoma supernatant as a murine/human chimeric antibody (human variable domains, mouse constant regions)) VH: not shown VL: DIQMTQSPSSLSASVGDRVTITCRASQGISNYLAWYQQKPGKIPKLLIYAASTLQSGVPSRFSGSGSGTDFTLTISSLQPEDVATYYCQKYNSAPRTFGQGTKVEIK
6 |  |  | binds |  |  | 2D10 (hybridoma) (antibody, V domains shown, Purified from hybridoma supernatant as a murine/human chimeric antibody (human variable domains, mouse constant regions); also called 02D10) VH: EVQLVESGGGLVQPGGSLRLSCAASGFTFSNYAMNWVRQAPGKGLEWVSTISGSGGATRYADSVKGRFTISRDNSRNTVYLQMNSLRVEDTAVFYCTKDRLIMATVRGPYYYGMDVWGQGTTVTVSS VL: DIQMTQSPSSLSASVGDRVTITCRASQSISSYLNWYQQKPGKAPNLLIYAASSLQSGVPSRFSGSGSETDFTLTISSLQPEDFATYYCQQSHSVSFTFGPGTKVDIK
